We go through 13 molecules from patent US20190351049A1 (Regeneron, published 2019).

Assay [1] addresses T1, MERS-CoV spike protein (EMC/2012), wt (MERS-CoV (isolate EMC/2012), UniProt K9N5Q8 18-1353). Nature of the assay: cell-based or functional assay.
Assay [2] concerns the target T1, MERS-CoV spike protein (EMC/2012), wt. Nature of the assay: cell-based or functional assay. The source holds these as a separate data set.

B1: H2bM15291N (antibody, V domains shown)
VH: QVQLVQSGAEVKKPGSSVKVSCKASGDTFSTYAVSWVRQAPGQGLEWMGGIIPFFGTSNYAQKFQGRVTITTDESTTTAYMELNSLRSEDTAVYYCAREITMVRGLTNYHFYGMDVWGQGTTVTVSS
VL: not shown
On to B1, for which, in assay [1], the “IC50 against MERSpp” value turned out to be 186 pM and the “IC50 against live virus (EMC2012)” value came to 2220 pM. Also, in assay [2], the “% Neutralization (.025 µg/ml), MERSpp infectivity” value (“% Neutralization (.025 µg/ml)” for short) was found to be 90% and the “Neutralization IC50 (M), MERSpp infectivity” value (“Neutralization IC50 (M)” below) was 3.05e-10 M.

B2: H1M15289N (antibody, V domains shown)
VH: QVQLQESGPGLVKPSETLSLTCTVSGGSISSYYWSWIRQPPGKGLEWIGYIYYSGSANYNPSLKSRVTISVDTSKNQFSLKLSSVTAADTAVYYCVRDRDLLLDHWGQGTLVTVSS
VL: EIVMTQSPATLSVSPGKRATLSCRASQSVSSNLAWYQQKPGQAPRLLIYGASTRTTGFPARFSGSGSGTDFTLTISSLQSEDFAVYYCQQYNNWPYTFGQGTMLEIK
Regarding B2, in assay [1], the “IC50 against MERSpp” value was 281 pM and the “IC50 against live virus (EMC2012)” value is 3150 pM. Besides, in assay [2], the “% Neutralization (.025 µg/ml)” value turned out to be 89% and the “Neutralization IC50 (M)” value is 4.25e-10 M.

B3: H2aM15287N (antibody, V domains shown)
VH: QLQLQESGPGLVKPSETLSLTCTVSGGSISSGNYYWGWIRQPPGKGLEWFGTIYYSGSTYYNPSLKSRVTISVDTSKNQFSLKLSSVTAADTAVYYCARRAAVGHFDYWGQGTLVTVSS
VL: DIQMTQSPSTLSASVGDRVTITCRASQSISTWLAWYQQKPGKAPKLLIYEASSLESGVPSRFSGSGFGTEFTLTISRLQPDDFATYFCQQYNTYWTFGQGTKVEIK
Consider B3, for which, in assay [1], the “IC50 against MERSpp” value was 2930 pM and the “IC50 against live virus (EMC2012)” value turned out to be 8920 pM. For the same molecule, in assay [2], the “% Neutralization (.025 µg/ml)” value was 5% and the “Neutralization IC50 (M)” value came out at 3.59e-09 M.

B4: H2aM15281N (antibody, V domains shown)
VH: QVQLVQSGAEVKKPGSSVKVSCKASKDTFSSYAISWVRQAPGQGLEWMGGIIPFFGTTTYEQKFQGRVTITTDESTRTAYMELSSLRSEDSAVYYCARDRPCISSAGTRYHYCVMDVWGQGTTVTVSS
VL: not shown
For the molecule B4, in assay [1], the “IC50 against MERSpp” value amounted to 78.5 pM and the “IC50 against live virus (EMC2012)” value worked out at 292 pM. Moreover, in assay [2], the “% Neutralization (.025 µg/ml)” value was 98% and the “Neutralization IC50 (M)” value was 4.64e-10 M.

B5: H2aM15272N (antibody, V domains shown)
VH: QVRLVQSGAEVKKPGSSVKVSCKASGDTFSSYAISWVRQAPGQGLEWMGGIIPFFVTTTYAQNFQGRVTITTDESTRTAYMELSSLRSEDSAVYYCARDRPCISSAGTRYHYCVMDVWGQGTTVTVSS
VL: not shown
As for B5, in assay [1], the “IC50 against MERSpp” value amounted to 72.3 pM and the “IC50 against live virus (EMC2012)” value stood at 569 pM. In assay [2], the “% Neutralization (.025 µg/ml)” value was 97% and the “Neutralization IC50 (M)” value stood at 2.21e-10 M.

B6: H2aM15271N (antibody, V domains shown)
VH: EVQLVESGGALVQPGGSLRLSCAASGFIFGSYEMNWVRQAPGKGLEWLSYISSSGSTIYYADSVKGRFTISRDNAKNSLYLQMNSLRAEDTAVYYCARERGQLGRGGYYYYGMDVWGQGTTVTVSS
VL: EIVLTRSPGTLSLSPGERATLSCRASQSVSSSYLAWYHQKPGQAPRLLMYGTSIRATGIPDRFSGSGSGTDFTLTISRLEPEDFAVYYCQQYGSSPPWTFGQGTKVEIK
On to B6, for which, in assay [1], the “IC50 against MERSpp” value was found to be 127 pM and the “IC50 against live virus (EMC2012)” value stood at 1030 pM. In addition, in assay [2], the “% Neutralization (.025 µg/ml)” value is 97% and the “Neutralization IC50 (M)” value amounted to 2.74e-10 M.

B7: H1M15269N (antibody, V domains shown)
VH: EVQLLESGGGLVQPGGSLRLSCPASGFTFSNYAMTWVRQAPGKGLEWVSAISGSGATTKYADSVKGRFTISRDNSRNTLYLQMNSLRAEDTAVYYCAKGGSGSYFPYYYYGLDVWGQGTTVTVSS
VL: EIVMTQSPATLSVSPGDSATLSCRASQTVSSNLAWYQQKPGQAPRLLIYGASTRATGIPARFSGSGSGTEFTLTISSLQSEDFAVYYCQQYYNWWTFGQGTKVEIK
As for B7, in assay [1], the “IC50 against MERSpp” value was determined as 688 pM and the “IC50 against live virus (EMC2012)” value was determined as 6800 pM. Further, in assay [2], the “% Neutralization (.025 µg/ml)” value came to 40% and the “Neutralization IC50 (M)” value amounted to 1.02e-09 M.

B8: H2bM15292N (antibody, V domains shown)
VH: QVQLVQSGAEVKKPGSSVKVSCKASGGTFNNYAISWVRQAPGQGLEWMGGIIPFFGTTNYAQKFQDRVTITSDDSTITAYMELSRLRSEDTAVYYCARDEPRRDGYNYYHYYYMDVWGQGTTVTVSS
VL: DIQMTQSPSSLSASVGDRVTITCRASQSINSYLNWYQQKPGKAPNLLIYAASSLQSGVPSRFSGSGSGTDFTLTISSLHPEDFATYYCQQSYSTPPITFGQGTRLEIK
Consider B8, for which, in assay [1], the “IC50 against MERSpp” value stood at 113 pM and the “IC50 against live virus (EMC2012)” value stood at 2260 pM. Further, in assay [2], the “% Neutralization (.025 µg/ml)” value came out at 91% and the “Neutralization IC50 (M)” value was found to be 3.57e-10 M.

B9: H1M15293N (antibody, V domains shown)
VH: QVQLVQSGAEVKKPGSSVKVSCKVSGVTFSSYAISWVRQAPGQGLEWMGGIIPFFGTASYAQKFQGRVTVTTDESTSTAYMEVSSLRSEDTAVYYCARDNPELTKEGYYHYYAMDVWGQGTTVTVSS
VL: not shown
B9: in assay [1], the “IC50 against MERSpp” value was found to be 258 pM and the “IC50 against live virus (EMC2012)” value was 2580 pM. In assay [2], the “% Neutralization (.025 µg/ml)” value turned out to be 86% and the “Neutralization IC50 (M)” value is 4.36e-10 M.

B10: H2aM15270N (antibody, V domains shown)
VH: EVQLLESGGGLEQPGGSLRLSCAASGFTFSSYAMIWVRQAPGKGLEWVSTISGSGVNTYYADSVKGRFTISRDNSKNTLHLQMNSLRAEDTAVYHCAKEGLDCANGVCYNYYGMDVWGQGTTVTVSS
VL: DIQMTQSPSSLSASVGDRVTITCRASQSINSFLNWYHQKPGKAPKFLIYSASNLQSGVPSRFSGSGSGTDFTLTISSLQPEDFSTYYCQQSYSIPLTFGGGTKVEIK
On to B10, for which, in assay [1], the “IC50 against MERSpp” value came out at 102 pM and the “IC50 against live virus (EMC2012)” value turned out to be 711 pM. Also, in assay [2], the “% Neutralization (.025 µg/ml)” value turned out to be 98% and the “Neutralization IC50 (M)” value was determined as 3.25e-10 M.

B11: H1M15290N (antibody, V domains shown)
VH: QVQLVQSGAEVKKPGSSVKVSCKASGGTFSTYAISWVRQAPGQGLEWMGGIIPFFGTANYAQKFQGRVTITTDESTSTAYMELSSLRSEDTAVYYCAREGTYYDSLTGYYTHYYRMDVWGQGTTVTVSS
VL: not shown
As to B11, in assay [1], the “IC50 against MERSpp” value was 210 pM and the “IC50 against live virus (EMC2012)” value worked out at 2550 pM. Also, in assay [2], the “% Neutralization (.025 µg/ml)” value came out at 83% and the “Neutralization IC50 (M)” value was found to be 5.84e-10 M.

B12: H1M15267N (antibody, V domains shown)
VH: QVQLQESGPGLVKPSETLSLTCTVSGGSISSYYWSWIRQPPGKGLEWIGYIYYSGSPNYNPSLKSRVTISVDTSKNQFSLKLTSVTAADTAVYYCARSLNWGPPFDYWGQGTLVTVSS
VL: not shown
As for B12, in assay [1], the “IC50 against MERSpp” value is 99.8 pM and the “IC50 against live virus (EMC2012)” value worked out at 891 pM. Also, in assay [2], the “% Neutralization (.025 µg/ml)” value was found to be 99% and the “Neutralization IC50 (M)” value is 1.49e-10 M.

B13: H2aM15278N (antibody, V domains shown)
VH: QVQLVQSGAEVKKPGASVKVSCKASGYTFTSHGISWVRQAPGQGFEWMGWIGTYNSNTDYAQNFQGRVTMTTDTSTSTAYMELRNLRSDDTAVYYCARERGPYYGMDVWGQGTTVTVSS
VL: EIVLAQSPGTLSLSPGERATLSCRASQSVNSNYLAWYQQKPGQAPRLLIYGASSRATGIPDRFSGSGSGTDFTLTISRLEPEDFAVYYCQQYGNSLTFGPGTKVDFK
As for B13, in assay [1], the “IC50 against MERSpp” value stood at 142 pM and the “IC50 against live virus (EMC2012)” value came to 644 pM. Further, in assay [2], the “% Neutralization (.025 µg/ml)” value was 98% and the “Neutralization IC50 (M)” value was 2.11e-10 M.
